Source: patent US10745461B2, “Pulsed introduction of low-dose RANKL as a therapy for diet-induced atherosclerosis” (Saint Louis University, priority 2015, dated 2020)
Entries after “also recorded” stand apart in the source; their conditions may differ.

Tests used:
DLL4 = DLL4 expression in mature osteoclasts by qRT-PCR; type: cell-based, mouse
From the text: DLL-4 expression is repressed in the presence of […] and IL-17 but can be de-repressed by RANKL. Having identified that DLL4 was required for osteoclasts to induce Foxp3 expression in CD8+ T cells we next tested if DLL-4 expression was affected by pro-inflammatory cytokines. […] As RANKL induced DLL4 in osteoclast precursors, it was hypothesized that adding additional RANKL may overcome the repression of DLL4 by TNFα. To assess the reversibility of DLL4 expression, mature osteoclasts were cultured overnight in 50 ng/ml RANKL and 20 ng/ml […], and then additional RANKL was added to the culture media (while maintaining 20 ng/ml TNFα) as shown in FIG. 5E. Indeed, addition of RANKL overcomes (within 24 hours) the repression of DLL4 by TNFα as assessed by qRT-PCR. […] The experiment was performed as above, but in this case FoxP3 induction in OT-I CD8 T-cells in the presence of OVA and either 10 ng/ml or 20 ng/ml TNFα was measured.
Osteoclasts seeded on day 4 at 1.5×10^6 cells/ml were used in all experiments. RNA was isolated at time point described in Figure legends. 10 to 50 ng of RNA was used for first-strand cDNA synthesis in 50 μL reaction per kit instructions (Superscript III cDNA synthesis system; Invitrogen). In all cases 10% of the cDNA product was used in a 50 μL PCR reaction that contained 10 μM each forward and reverse primers. For quantitative PCR (qPCR) SYBR green system (Invitrogen) was used. Otherwise, cDNA was amplified (25 cycles) and the products resolved on 1.2% agarose gel and visualized by ethidium bromide staining.

ovariectomized mice = assay: Low-dose RANKL at various times post-OVX in C57BL/6J mice; type: in vivo; conditions: for TcREG induction (flow-cytometry, femora): OVX C57BL/6J, two doses 0.125 mg/kg 24 hours apart, 10 days after first treatment, 2, 3, 6, 8 weeks post-OVX, 0.125 mg/kg
Experimental: FIGS. 9E-9F provide for examples of a low-dose RANKL treatment in a mouse model. All mice (C57BL/6J) were sham-operated (S) or ovariectomized (OVX) at 12 weeks of age. At time indicated after OVX, two doses of RANKL (0.125 mg/kg) were administered 24 hours apart 10 days after first treatment, mice were sacrificed. […] Representative images of the proximal tibia are shown from 3 weeks post-OVX in FIG. 9E. […] Representative images from the double-labeled femur (calcein green and alizarin red) from each group are shown. Arrows are shown to emphasize the distance between dyes. Data from 6 to 12 mice per group. For figure reference; ****=P<1×10^−4; ***=P<1×10^−3; **=P<0.01; *=P<0.05 and NS=not statistically significant.

TNFα and IL17A = assay: Once per month low-dose RANKL or Zoledronate: cytokines from peripheral blood cells by multiplexed ELISA; type: in vivo, mice; conditions: 120 days post-OVX; RANKL 0.125 mg/kg once per month; ZA once 3 weeks post-OVX
Experimental: To assess the kinetics of a single treatment, C57BL/6J ovariectomized mice were treated with low-dose RANKL (administered twice 24 hrs apart, 2 weeks post-OVX) and then followed by serum CTX assay. […] In FIG. 11B, to assess whether multiple treatments are effective, sham-operated (Sx) or OVX 12-week old C57BL/6J mice were treated with low-dose RANKL (0.125 mg/kg) once per month or once with the bisphosphonate Zoledronate (ZA; 3 weeks post-OVX). 120 days post-OVX peripheral blood obtained by mandible bleeds was treated to remove RBCs (BD Pharmalyse) then 1 to 3×10^6 cells were plated per well in triplicate (6 mice/group). Media was collected after 36 hours of culturing and cytokine levels quantitated by multiplexed ELISA (Millipore).

[1] = system: aortic plaque development and bone loss; assay: Ovariectomized WT or LDLR-lacking female mice on Western Diet, pulsed low dose RANKL 14 days and 6 weeks post surgery; type: in vivo
From the text: With specific regards to determining an effect on atherosclerosis, ten-week old female mice that were either C57BL/6J (WT) or lacking low-density lipoprotein receptor (LDLR) were randomly assigned to chow (LabDiet 5L0B, containing 5% fat and 0.014% cholesterol, by weight) or a “Western Diet” that was high in fat and cholesterol (Teklad TD96121, containing 21% fat and 1.25% cholesterol). When the mice were 12 weeks old, all animals were surgically operated. Half the mice were ovariectomized (simulating menopause), and the other half had sham surgery. One group of ovariectomized mice on the Western Diet were treated with pulsed low dose RANKL (0.125 mg/kg) 14 days post surgery (14 weeks of age) and 6 weeks post surgery (18 weeks old). All mice were sacrificed at 20 weeks of age, and bone loss and aortic plaque development were analyzed.

B1: receptor activator of NF-κB ligand (protein, UniProt O35235 139-316, looked up)
Tumor necrosis factor ligand …: FSGAPAMMEGSWLDVAQRGKPEAQPFAHLTINAASIPSGSHKVTLSSWYHDRGWAKISNMTLSNGKLRVNQDGFYYLYANICFRHHETSGSVPTDYLQLMVYVVKTSIKIPSSHNLMKGGSTKNWSGNSEFHFYSINVGGFFKLRAGEEISIQVSNPSLLDPDQDATYFGAFKVQDID
modifications: GST tag
- time for RANKL to overcome the repression of DLL4 by TNFα (DLL4; 20 ng/ml TNFα): ≤ 24 h
- DLL4 expression after additional RANKL (DLL4; mature osteoclasts, 50 ng/ml RANKL and 20 ng/ml TNFα maintained): increased the expression of DLL4; also recorded: overcomes
- TcREG induction (flow-cytometry, femora) (ovariectomized mice; listed as Low-dose RANKL): induced TcREG
- TcREG induction (flow-cytometry, femora) (ovariectomized mice; listed as low-dose RANKL): can induce TcREG at two, three, six and eight-weeks post-ovariectomy
- bone mass of the proximal tibia by μCT (ovariectomized mice; as E20): increased bone mass of the proximal tibia
- mineral apposition and bone formation rate (dynamic histomorphometry) (ovariectomized mice; as E20): increased mineral apposition (left panel) and bone formation rate
- proinflammatory effector cells in the femora (ovariectomized mice; as E20): decreased proinflammatory effector cells in the femora
- serum CTX levels (ovariectomized mice; as E20): decreased serum CTX levels
- TNFα and IL17A produced by peripheral blood cells (immunosuppression) (TNFα and IL17A): immunosuppressive
- plaque volume ([1]; low dose RANKL treated mice): plaque volume in low dose treated mice was also reduced
- weight gain ([1]; low dose RANKL vs without treatment): less weight gain
- inflammation ([1]; ovariectomized mice, compared to Zolendronate): reduced
- number of atherosclerotic lesions in the aortic root ([1]; ovariectomized, western diet): the number of atherosclerotic lesions in the aortic root was reduced
- osteoporosis ([1]; ovariectomized, western diet): ameliorate osteoporosis
